According to the NTF2 design screens of Basanta et al. (2020):

Experiment: protease stability score; higher = more stable; yeast display proteolysis, trypsin and chymotrypsin;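 note: log10 excess protease needed over predicted unfolded state with 0 meaning unfolded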

DEDERQDLARKYNKALKQGDSKKFEELVDKHVKVEVGETRFHGREQASKNFRELVDNFDEFEVKSLEVHGESVTVEAVARINGRTANIRFQRTIHNGKNQVVKLNPDDMRRNLK
protease stability score: -0.134

DSRDNRAATRLRQAHESGDPDQIRDNVDPNATIQVGDKSIHGMESWAREEHKKHRELKVEIKDFRQSASNGHVKATIDRVDNHNGRPQRTTVDIHIVFHNGKVKSIDVKTTK
protease stability score: -0.481

DTDKTARQLVRDLEKALQTGDPDKLAKLFDKDARINVGEKDYQGRERMQRNWRRDNTRIDHVSVDLKDMKIQGNKISVDMTIKFKVDGHHNSRVVVLLFDNDNGTVRAVENQQK
protease stability score: 0.16

DEDQAKTIEELWRTNDFDTLATQADKDVHNHVGDKKIHGRTQHTQAQERIRRAVDHFDVKRVNIQGNKVDIDVVMEVNGKNVHMTVVITVHNGKIKHMSMRVRDEEVKKLFEEMEQ
protease stability score: 0.527

DDKHIQTQAERIAKALQTGDPDKFKNEMRKDVQVDVGDKRLHGREEVAKWMEDKHKRADRITYDSVEASGDKITMTVVIQINGRKKHFQFEATQSNGKIVHARERDQ
protease stability score: -0.393

DETKQQELIHRLLEALETGNPDEYIKNLDKDVRVVVGDTEVHGREDLKKLFERLTHQIDHQHIKDYKVSNGQADVKLVVVNNGQERRLTIKIVVRNGHVKEVVWNDR
protease stability score: 1.77

DHTKIARRLMEDLTDARRHNDPHHVKNLLDKDVKIRVGDKSVDGEEEATKQMIERQRRADHIEMRIKSVSTHNGQLRIIFDVREVHNGQEHTDREEVQFDNENGKVRMVNVQQK
protease stability score: -0.056

DETLFELIQRLIEAYKHGNPDELKKQADPNARVKVGDKELHGMEEIAKELVTQRKQQRLSYLSINNDDDPNHARVRFNVEVERNGQPRTKRFELRAETHNGRLISMEVQSRR
protease stability score: 0.232

DEDKEKKINKDIADAWQNGDEQQMQKQIPPEVRIQVGDKTVHGREHIHKWMRRWRERVDHLQLKDMTAHNGNMRIKFVIRHNGRQDVRQVHIQVDNGTVHTASFDTE
protease stability score: 0.43

DEEAVEIAHEVNKALNENDEHRLRELFDPNAKIQYGDNVIKGSDNLVKDIRRKSKRMRVRFDVKSIDNQGDKVEIDANYRQTHDGEPRTRKVDAKLRVENGRIKHFSARFTP
protease stability score: -0.044

DEEFRHQVKQFLRAETRGNEETLKEQMDKDATFEVGDRVINGHEKYASDQHERRKEIRVEIKSMEVDAQGNTADYEIDFVEHFDGKPHRRKVRASIRVHNGRVKEIVEKDSQ
protease stability score: -0.184

DEELEEQVKEFFHAIETGDEDKLRELADPNARFHVGEKNLHGMKDVAERIRREREHIRYTVQIDSIKADGNRAHVRVVAEKEHNGNPRHFVLNVEIVRHNGRIRKVEATEDK
protease stability score: 0.938

DSEKMHEINKALKTNDPDKLEQLMDKDVRAKVGDKTFHGREEVVKMWRDLYKQADHVNVDRVDVQGEKIDATVRADFNGTSVDYKVHISASNGRIKHITVTVTDEERHRQLQSVLG
protease stability score: 1.31

DEEAMKVFEEIMRAIEQGDPDRIIENADEDVRFDVGDKRLHGREKAAKDLVDFLHHQRTHIRSYDTSVSGEKLTLDVDMVNQNNGNPNSKRYTVDAHVHNGKLKSVKETDDQ
protease stability score: -0.27

DQEKLQSYVKQYETNDESKLKKNMDENARVDIGDRRITGMEKAADILRHFMEQADHVKLDRMEVQGNHATVDVTAVVNGQKLDYKFVIHVHNGKVKRVEWRVTSEENQKTYDKIVG
protease stability score: 0.537

DEEVAQDVRRNVERGDWKRWAELADENARVSVGDNTYEGRNDWHKYVKDLEHQVDHFEVKHITIENGKIKVDFVLTVNGHEVRMKQVIVVTNGRISRLRIQATDTDVQRQLNEAMR
protease stability score: -0.066

DEDDQERKLRKIAKNITKGDKTSLLKMVDKDAKASVGDKTVEGDNQLKRVMEERTRRIDHLDLKDVKVTGNTLVVHYVIHHNGKNKHQVAFVVLDNGRIKSMSFHDG
protease stability score: -0.08

DERMKKLAEQIVKARRTGDEKQQKELFDEDAHVQIGDKTVHGKENQIETMKKRRDEIRVEIRINSLSVNNGKADISLEQTDDKNGTPKTDVVRATVHATNGRVKEVRYKHDG
protease stability score: -0.156

DEDLIELAKELMHALQEGDEKRLQDLIDPNASAQIGDHRVHGMDEVLSTLVEHQHNQRVRIDRMEADVHNGTARVRIDQQFEHNGNPDKKVLVYEMTANNGKLKHYKLDEDK
protease stability score: 0.268

DEDALTRIEDAAKHMNEGNFERYADMADPNAHVNIGDKTYQGRESLKHLMQEQRERWEFKLDVRRVDQDGEKAVVTAKVNQKHNGKPDTKTVYIYVSWKNGRAQEIEVRQDS
protease stability score: 0.319

DEEDDKKMNELLKQIQTGNDQKVERLIDPNANMHIGNQDIHGSEDVRKWIEKITKELNITFKVNHFRVKGDKIKIKVKINVKHNGQPDSDTIDLVARVENGHFTRIELHMDEKRWKKQVS
protease stability score: 1.15

DEDLKHLFHTFQKVLEEGNREKLRRLADENVTVSYGDKRVHGMESFARQVKEERDEQRVVINIRKVDVSGDQVRVVADVEREHNGKPDRKNLVMEANAEGDKFREVKYTEHG
protease stability score: 0.151

DKDDLRRMHQLVTRNNPQKFKQQADKDAKVQYGDKTVTGMTDAARQMVKFWRQADHIEVKHVDVNGDKLNVVMRMNVNGRNLHMVVYYVVSNGHVRSASVTFTDPHQQEEFEKNAS
protease stability score: 0.316

DEEELTKTLHEIIKDFVHGDSNQLRENADPNVKLKVGDKEIRGHHEVHKWAKKLRERVDSIKVKDYSATGEKAVAHVIADINGENVEITIVIQAHNGRIKLITVDPEDDKKMKQ
protease stability score: 0.279

DHTVLEKAATALKQGDTDKMNKLADENVKMKVGDKEFHGRQQVNTALKRIKEQVDHRSIRSIENRGNRVTIDANVVVNGKHVDVNFILVVHNGRLKMFQIRVTDPQVHRRLSEIMS
protease stability score: 0.722
